What was measured:
UvrA [1] = assay: BIACORE sensor chip (NTA), β domain immobilised, UvrA in solution, in the absence of ATP
UvrA [2] = assay: BIACORE sensor chip (NTA), β domain immobilised, UvrA in solution, in the presence of ATP

Kd (UvrA [1]): 1300 nM
Kd (UvrA [2]): 500 nM
Substance: TRCF-β (β domain of Thermus thermophilus HB8 transcription-repair coupling factor), His-tagged
